Laboratory results from PMC5452035, “Structural insight into recognition of phosphorylated threonine‐4 of RNA polymerase II C‐terminal domain by Rtt103p” (EMBO Reports, 2017).

Legend:
Experiment in all cases: fluorescence polarisation; fluorescence anisotropy; Rtt103p CID titrated into 10 nM N-terminally FAM-labelled CTD peptide; 10°C; 35 mM KH2PO4, 100 mM KCl, pH 6.8; 1:1 model with non-specific binding (DynaFit)
[1] = molecular target: FAM-PSYSP(pT)…
[2] = molecular target: FAM-…
[3] = molecular target: FAM-PSY(pS)…
[4] = molecular target: FAM-PSYSP(pT)SPSYSP(pT)SPS
[5] = molecular target: FAM-PSY(pS)P(pT)…

Kd [1]: 15 µM
Kd [2]: 64 µM
Kd [3]: 6 µM
Kd [4]: 6 µM
Kd [5]: 43 µM
Substance: Rtt103p CTD-interacting domain (CID) (3-131-6xHIS) (from UniProt Q05543 3-131) (domain or fragment)
